The record followed here is doi:10.1101/2024.04.03.587999 (bioRxiv, 2024).

The experiment concerns the target T1, Outer membrane protein A of Acinetobacter baumannii (recombinant AbOmpA) (Acinetobacter baumannii, UniProt Q6RYW5 20-356).
T1 sequence (looked up): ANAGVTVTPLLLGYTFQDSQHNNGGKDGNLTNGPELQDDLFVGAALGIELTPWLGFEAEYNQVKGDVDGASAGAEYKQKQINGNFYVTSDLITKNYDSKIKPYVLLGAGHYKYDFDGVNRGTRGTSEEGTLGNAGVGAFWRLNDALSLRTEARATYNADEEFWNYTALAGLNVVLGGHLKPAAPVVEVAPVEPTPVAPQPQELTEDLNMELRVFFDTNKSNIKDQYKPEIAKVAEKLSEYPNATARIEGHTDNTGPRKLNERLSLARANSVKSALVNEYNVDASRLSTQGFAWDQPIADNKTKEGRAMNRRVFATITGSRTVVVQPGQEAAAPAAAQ
Put plainly: SPR. In general terms: In SPR one partner is held on a chip, and binding of the other changes the refractive index at the surface.

Take QMGFMTSPKHSV [P92]: the Kd (in general, the constant that tells how readily two partners part at equilibrium) worked out at 7.84 nM.
